According to PMC5632315 (Biochemistry, 2016):
No end group written: not given here.

Molecular target: human calmodulin (CaM) construct possessing an N-terminal His6 tag (human, UniProt P0DP23 1-149)
Assay: single-molecule TIRF microscopy

binding result: binds
Binder: C(Alexa Fluor 555 maleimide)KKKKKRFSFKKSFKLSGFSFKKNKK [Human MARCKS PIP2 binding domain peptide (MARCKS residues 151-175) with an added N-terminal cysteine]
